Measured values: patent US20190276496A1 (FUNDACI N PARA LA INVESTIGACI N M DICA APLICADA, published 2019)
Where no end group is shown, it is not given here. [ ]: non-standard residue; d: D form.

Assays:
[1] = target: T1, Foxp3 in murine CD25+ Treg cells (mouse, UniProt Q99JB6 1-417); assay: cell-based or functional assay
T1 sequence (looked up): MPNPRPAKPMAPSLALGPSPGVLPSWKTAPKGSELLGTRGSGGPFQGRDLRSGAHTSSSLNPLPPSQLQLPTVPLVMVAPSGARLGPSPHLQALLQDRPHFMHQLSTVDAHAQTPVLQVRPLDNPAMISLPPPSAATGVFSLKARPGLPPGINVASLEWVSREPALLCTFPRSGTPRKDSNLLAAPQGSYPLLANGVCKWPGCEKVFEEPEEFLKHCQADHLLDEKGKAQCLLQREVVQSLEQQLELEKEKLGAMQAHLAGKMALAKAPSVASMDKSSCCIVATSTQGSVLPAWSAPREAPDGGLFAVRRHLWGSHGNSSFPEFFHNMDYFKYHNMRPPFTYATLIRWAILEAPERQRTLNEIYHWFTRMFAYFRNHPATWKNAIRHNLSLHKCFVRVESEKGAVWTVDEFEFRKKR

[2] = target: T1, Foxp3 in murine CD25+ Treg cells; assay: cell-based or functional assay; remark: listed apart in the source
[3] = target: GST-FOXP3 (GST fused to the isoform A from human FOXP3 gene) (human) [GST: P08515]; assay: AlphaScreen competition, GST-FOXP3 (100 nM) / His-Runx1 (46 nM, competitor); peptide at 100 µM
Sequence of GST-FOXP3 (GST fused to the isoform A from human FOXP3 gene) (human) [GST: P08515] (P08515 1-218, tags or fused parts left off): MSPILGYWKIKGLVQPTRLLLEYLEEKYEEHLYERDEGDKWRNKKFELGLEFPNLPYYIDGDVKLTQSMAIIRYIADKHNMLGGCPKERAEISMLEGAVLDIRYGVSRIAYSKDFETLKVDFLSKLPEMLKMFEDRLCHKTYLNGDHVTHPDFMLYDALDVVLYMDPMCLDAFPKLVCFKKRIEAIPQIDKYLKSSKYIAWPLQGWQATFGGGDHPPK

[4] = target: human FOXP3 tagged with 6 histidines at the C terminus (human) (UniProt Q9BZS1); assay: SPR (ProteOn XPR36), FOXP3-6His immobilized on GLM chip, peptide 1-20 µM injected; ratio to p60 (SEQ ID NO: 1)
Sequence of human FOXP3 tagged with 6 histidines at the C terminus (human) (Q9BZS1 other isoform, or with tags, fused parts or gaps): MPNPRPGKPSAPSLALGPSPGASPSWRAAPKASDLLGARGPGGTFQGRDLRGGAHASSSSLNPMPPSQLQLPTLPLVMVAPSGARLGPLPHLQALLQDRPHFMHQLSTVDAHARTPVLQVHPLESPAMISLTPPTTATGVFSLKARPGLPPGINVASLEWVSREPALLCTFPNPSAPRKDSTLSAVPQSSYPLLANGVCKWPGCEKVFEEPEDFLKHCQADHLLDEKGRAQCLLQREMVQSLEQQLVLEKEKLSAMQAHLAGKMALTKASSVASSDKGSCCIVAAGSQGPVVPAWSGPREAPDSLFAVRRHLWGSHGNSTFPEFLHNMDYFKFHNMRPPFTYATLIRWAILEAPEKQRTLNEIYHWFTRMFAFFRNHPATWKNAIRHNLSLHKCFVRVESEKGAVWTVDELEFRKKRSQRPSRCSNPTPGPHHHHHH

[5] = target: human FOXP3 tagged with 6 histidines at the C terminus (human) (UniProt Q9BZS1); assay: AlphaScreen competition, His-tagged FOXP3 (400 nM) / GST-tagged FOXP3 (40 nM, competitor); peptide at 100 µM
[6] = target: GST-FOXP3 (GST fused to the isoform A from human FOXP3 gene) (human) [GST: P08515]; assay: AlphaScreen competition, GST-FOXP3 (100 nM) / His-Runx1 (46 nM, competitor); peptide at 2.5 µM
[7] = target: human FOXP3 tagged with 6 histidines at the C terminus (human) (UniProt Q9BZS1); assay: AlphaScreen competition, His-tagged FOXP3 (400 nM) / GST-tagged FOXP3 (40 nM, competitor); peptide at 20 µM

| Binder | IC50 (µM) of inhibition of Treg activity, in vitro Treg suppression assay (murine Tconv + Treg, anti-CD3, [3H]-thymidine) [1] [µM] | Treg inhibition-% inhibition (100 µM) [2] [%] | Foxp3-Runx1 Inhibition % inhibition [3] [%] | Ratio binding Peptide/p60 (fold change) [4] [fold change] | Dimerization inhibition % inhibition [5] [%] | Foxp3-Runx1 Inhibition % inhibition [6] [%] | Dimerization inhibition % inhibition [7] [%] |
| --- | --- | --- | --- | --- | --- | --- | --- |
| RDFQSFRKMWPFFAM [p60 (peptide of SEQ ID NO: 1)] | 38.3 | 116 | 54.5 | 1 | 59.7 | – | – |
| Ac-GR[dA]FQSFRKMWPFFAM-NH2 (SMILES CSCC[C@H](NC(=O)[C@H](C)NC(=O)[C@H](Cc1ccccc1)NC(=O)[C@H](Cc1ccccc1)NC(=O)[C@@H]1CCCN1C(=O)[C@H](Cc1c[nH]c2ccccc12)NC(=O)[C@H](CCSC)NC(=O)[C@H](CCCCN)NC(=O)[C@H](CCCNC(=N)N)NC(=O)[C@H](Cc1ccccc1)NC(=O)[C@H](CO)NC(=O)[C@H](CCC(N)=O)NC(=O)[C@H](Cc1ccccc1)NC(=O)[C@@H](C)NC(=O)[C@H](CCCNC(=N)N)NC(=O)CNC(C)=O)C(N)=O) [peptide of SEQ ID NO: 14] | 12.5 | – | – | 3.6 | – | 80 | 90 |
| RDAQSFRKMWPFFAM [peptide of SEQ ID NO: 15] | – | – | 55.6 | 1.1 | – | – | – |
| RDFQAFRKMWPFFAM [peptide of SEQ ID NO: 19] | – | 160 | 74.7 | 1.1 | 89 | – | – |
| Ac-GRDFQSFRKMWPFFAM-NH2 [peptide of SEQ ID NO: 2] | – | – | – | 2.4 | – | – | 80 |
| RDFQSFRKMWAFFAM [peptide of SEQ ID NO: 30] | – | 170 | 73.9 | 1.1 | 81.3 | – | – |
| Ac-GR[dD]FQSFRKMWPFFAM-NH2 (SMILES CSCC[C@H](NC(=O)[C@H](C)NC(=O)[C@H](Cc1ccccc1)NC(=O)[C@H](Cc1ccccc1)NC(=O)[C@@H]1CCCN1C(=O)[C@H](Cc1c[nH]c2ccccc12)NC(=O)[C@H](CCSC)NC(=O)[C@H](CCCCN)NC(=O)[C@H](CCCNC(=N)N)NC(=O)[C@H](Cc1ccccc1)NC(=O)[C@H](CO)NC(=O)[C@H](CCC(N)=O)NC(=O)[C@H](Cc1ccccc1)NC(=O)[C@@H](CC(=O)O)NC(=O)[C@H](CCCNC(=N)N)NC(=O)CNC(C)=O)C(N)=O) [peptide of SEQ ID NO: 4] | 13.4 | – | – | 4.2 | – | – | – |
| Ac-GRAFQAFRKMWAFFAM-NH2 [peptide of SEQ ID NO: 45] | 3 | – | – | 8 | – | – | – |
| H-[dR]AFQSFRKMWPFFAM-OH (SMILES CSCC[C@H](NC(=O)[C@H](C)NC(=O)[C@H](Cc1ccccc1)NC(=O)[C@H](Cc1ccccc1)NC(=O)[C@@H]1CCCN1C(=O)[C@H](Cc1c[nH]c2ccccc12)NC(=O)[C@H](CCSC)NC(=O)[C@H](CCCCN)NC(=O)[C@H](CCCNC(=N)N)NC(=O)[C@H](Cc1ccccc1)NC(=O)[C@H](CO)NC(=O)[C@H](CCC(N)=O)NC(=O)[C@H](Cc1ccccc1)NC(=O)[C@H](C)NC(=O)[C@H](N)CCCNC(=N)N)C(=O)O) [peptide of SEQ ID NO: 46] | 12.5 | – | – | 2.7 | – | 95 | 90 |
| RAFQSFRKMWPFFA[dM] [peptide of SEQ ID NO: 47] | 35 | – | – | 1.7 | – | 75 | – |
| [dR]AFQSFRKMWPFFA[dM] [peptide of SEQ ID NO: 48] | 20 | – | – | 2.5 | – | 70 | – |
| RAFQAFRKMWPFFAM (head-to-tail cyclic: linker L is C(=O) between the N-terminal amino group of residue 1 and the alpha carbon of residue 15) [cyclic peptide SEQ ID NO: 50] | 0.8 | – | – | 21.4 | – | 60 | – |
| RAFQSFRKMWPFFAM [peptide of SEQ ID NO: 5] | – | 347 | 76 | 4.1 | 74.3 | – | – |
